US12043671B2, “Antibodies targeting an amphiregulin-derived cell surface neo-epitope” (Gundersen Lutheran Medical Foundation, Inc., priority 2021, dated 2024)

Legend:
cleaved-AREG peptide = molecular target: T1, cleaved-AREG peptide (Homo sapiens, UniProt P15514); assay: ELISA binding of 1A3 and 1A3-VC-PAB-MMAE to cleaved-AREG peptide; conditions: 0.001-1 μg/mL
T1 construct: host or cells: synthetic peptide
Protocol: Maxisorp flat bottom 96-well plates (Thermo Fisher Scientific) were coated with 5 μg/mL cleaved-AREG peptide at 4° C. overnight. After washing thrice with PBST (PBS with 0.05% Tween20) and blocking for 2 h at RT with 5% non-fat dry milk in PBST, various concentrations of 1A3 and 1A3-VC-PAB-MMAE (0.001, 0.01, 0.1, 1 μg/mL) were added to the wells and incubated for 2 h at RT. The wells were washed four times with PBST and were incubated at RT with Goat anti-rabbit IgG (H+L) Cross-adsorbed-HRP conjugate secondary Ab (ThermoFisher G-21234) for 1 h. One-Step™ Turbo™ B-ELISA Substrate Solution (Thermo Fisher Scientific) was added to the wells for color development, incubated for 15 min and the reaction was stopped by adding 2 M H2SO4.

[1] = molecular target: T2, Trunc AREG (fragment that remains cell-bound after cleavage by ADAM17) (Homo sapiens, UniProt P15514); assay: Immunoblot of TRF-conjugated AREG peptides, cleaved mimic; assay type: binding; conditions: 1 μg/mL antibody, 200 ng TRF-conjugated peptide
T2 construct: host or cells: synthetic peptide conjugated to transferrin
Protocol: (§1) Monomethyl auristatin E (MMAE) conjugated 1A3 antibody (1A3-VC-PAB-MMAE) was prepared using a kit (CM11409) from CellMosaic Inc. (Woburn, MA, USA) following the manufacturer's instructions. Maleimide-activated valine-citrulline p-aminobenzylcarbamate (VCPAB) MMAE was coupled directly to the antibody after reduction through alkylation.^13 The specificity of 1A3 and 1A3-VC-PAB-MMAE to peptides representing human cleaved-AREG was confirmed by immunoblotting. Briefly, transferrin (TRF) conjugated peptides representing cleaved and uncleaved AREG (200 ng) were electrophoresed on SDS-PAGE gels, transferred to PVDF membrane and probed with 1 μg/mL of 1A3 and 1A3-VC-PAB-MMAE. Horseradish peroxidase-conjugated goat anti-rabbit IgG was used. Antibody binding was detected with enhanced chemiluminescence (ECL; Amersham, Arlington Heights, IL, USA). Furthermore, the characterization and purity of 1A3-VC-PAB-MMAE were analyzed using hydrophobic interaction chromatography (HIC) and size-exclusion chromatography (Cell Mosaic).

[2] = molecular target: T3, FL AREG (peptide representing uncleaved AREG) (Homo sapiens, UniProt P15514); assay: Immunoblot of TRF-conjugated AREG peptides, intact cleavage site; assay type: binding; conditions: 1 μg/mL antibody, 200 ng TRF-conjugated peptide
T3 construct: a peptide spanning this region (SMKTHSMIDSSLSKIAC); host or cells: synthetic peptide conjugated to transferrin
Protocol: as §1

MCF7 cells = assay: Clonogenic assay; assay type: cell-based, human; conditions: MCF7, 25 or 50 nM, 72 h then 14 days
Protocol: (§2) MCF7 breast cancer cells were plated in 48-well plates, allowed to attach overnight and treated with 12.5, 25 or 50 nM of 1A3-VC-PAB-MMAE for 72 h. A vehicle treated well served as control. After removing the ADC-containing medium, cells were washed using PBS, trypsinized and plated at a density of 1000 cells/well in 12-well plates. The cells were cultured for 14 days, with fresh medium addition every 3 days. The colonies were stained with 0.5% crystal violet solution. The number of colonies per well was counted.

MCF7-F cells = assay: Clonogenic assay; assay type: cell-based, human; conditions: 25 or 50 nM, 72 h then 14 days
Protocol: as §2

MCF-7 cells = assay: Tubulin staining (microtubule integrity); assay type: cell-based, human; conditions: 48 h treatment
Protocol: FIGS. 4A-4E. In vitro 1A3-MMAE cytotoxicity in MCF-7 (FIG. 4A) and MCF-7F (FIG. 4B) cells measured by MTT assay after treatment with 1A3-MMAE, 1A3 or MMAE. FIG. 4C: Clonogenic growth of MCF-7 or MCF-7F cells after exposure to 1A3-MMAE and replating. FIG. 4D: The quantification of clonogenic growth assays in FIG. 4C. (FIG. 4E). Tubulin staining of MCF-7 cells after 48 h treatment with MMAE, 1A3, 1A3-MMAE (40× magnification).

MCF7 xenografts = assay: Orthotopic MCF7 breast cancer xenograft in NSG mice; assay type: in vivo, mouse
Source text: (§3) In Vivo Antitumor Activity Studies: The animal experiments were approved by the Institutional Animal Care and Use Committee of University of Wisconsin La Crosse (La Crosse, Wisconsin, USA). Four-week-old female NOD.Cg-Prkdc^scid II2rg^tm1Wjl/SzJ mice (NSG; The Jackson Laboratory) were acclimated for 1 week before the experiments. For MCF7 breast cancer xenograft model, the mice were implanted subcutaneously with 0.72-mg 17β-estradiol 90-day release tablets (Innovative Research of America) 3 days prior to cell injection. […] Firefly luciferase expressing MCF7 and MCF7-F cells (2×10^6 cells in a 1:1 mixture of serum-free DMEM and Matrigel) were injected orthotopically into the fourth inguinal mammary fat pad of each mouse. Once the tumors were well established, each cell line cohort was divided into three groups (n=5). Mean tumor volume at the start of treatment was 111 mm^3 for the MCF7 cohorts and 119 mm^3 for the MCF7-F cohorts. The mice were treated by intraperitoneal injection every 4 days for a total of six doses with unconjugated or MMAE conjugated anti-cleaved-AREG 1A3 antibody (5 mg/kg), or vehicle control (PBS). Tumor volumes were calculated from caliper data by using the formula: Volume (mm^3)=(Length×Width^2)/2. Mice were imaged weekly with the in vivo FX PRO imaging system (Carestream Molecular Imaging, Woodbridge, CA, USA) after injecting luciferin (150 mg/kg body weight). Tumor volume and body weight were monitored once a week. Statistical Analysis:
(§4) To test in vivo efficacy of 1A3-MMAE, human breast cancer cell lines expressing luciferase were injected orthotopically into NSG mice (one tumor in each inguinal mammary gland). Once the average tumor size reached approximately 100-125 mm^3, mice were randomized to one of three treatment groups: PBS, 1A3 (5 mg/kg) or 1A3-MMAE (5 mg/kg). Mice received intraperitoneal injections every 4 days for six total injections and were monitored for tumor progression or regression. Similar experiments were performed with MCF7 (FIGS. 5A, 5B, and 5C, left panels) and MCF7-F (FIGS. 5A, 5B, and 5C, right panels) xenografts.

MCF7-F xenografts = assay: Orthotopic MCF7-F endocrine-resistant xenograft in NSG mice; assay type: in vivo, mouse
Source text: as §3, §4

MCF7 breast cancer cells = assay: MTT cytotoxicity assay; conditions: MCF7, 1.56-200 nM, 72 h
Protocol: (§5) The cells were seeded at a density of 5000 cells/well in 96-well plates. Approximately 24 h after cell seeding, the cells were treated with varying doses (1.56, 3.125, 6.25, 12.5, 25, 50, 100 and 200 nM) of MMAE, 1A3 and 1A3-VC-PAB-MMAE. Untreated cells were used as control. After incubating for 72 h, the medium was aspirated and 50 μL of serum-free media and 50 μL of MTT solution (5 mg/mL solution in PBS) was added into each well; the cells were then incubated for 3 h at 37° C. The formazan crystals formed were dissolved with 4 mM HCl, 0.1% NP40 in isopropanol. The absorbance was measured at 590 nm using VersaMax Microplate Reader (Molecular Devices LLC, San Jose, California, USA). The assays were performed in triplicate.

[3] = tested on: MCF7-F (fulvestrant-resistant MCF7) breast cancer cells; assay: MTT cytotoxicity assay; conditions: 1.56-200 nM, 72 h
Protocol: as §5

B1: 1A3-MMAE: Monomethyl auristatin E (MMAE) conjugated 1A3 antibody via valine-citrulline p-aminobenzylcarbamate linker (conjugate)
VH: QSVKESEGRLVTPGTPLRLTCTVAGYSLSRYHMCWVRQAPGKGLEWIGMIGGSGRTDYASWAKGRFTISKTSTTVDLKITSPTTEDTATYFCSTVYTDSDGDFWGPGTLVTVSS
VL: AELDMTQTPSSKSVPVGGTVTINCQASESVYSNDRLAWFQQKPGQPPKLLIYYASTLASGVPSRFKGSGSGTQFTLTISDLECADAATYYCQSCYDMSSYGVAFGGGTELEIL
- binding to cleaved AREG peptide, unconjugated vs MMAE-conjugated (cleaved-AREG peptide): no substantial difference in binding
- recognition of truncated AREG peptide by immunoblot [1]: specifically recognized
- reaction with peptide representing uncleaved AREG by immunoblot [2]: did not react
- clonogenic survival (number of colonies relative to control) (MCF7 cells): dose-dependent effect on survival
- clonogenic survival (number of colonies relative to control) (MCF7-F cells): dose-dependent effect on survival
- tubulin disruption (microtubule integrity) (MCF-7 cells): exhibited tubulin disruption
- longitudinal luciferase imaging of xenografts (MCF7 xenografts; MCF7, 5 mg/kg): decreased in both volume and signal
- xenografts in which tumor volume decreased (maximum response) (MCF7 xenografts; MCF7, 5 mg/kg): 8/10
- xenografts in which tumor volume increased (maximum response) (MCF7 xenografts; MCF7, 5 mg/kg): 2/10
- tumor volume response by caliper measurements (MCF7 xenografts; MCF7, 5 mg/kg i.p. every 4 days, six doses): strong tumor shrinkage
- longitudinal luciferase imaging of xenografts (MCF7-F xenografts; 5 mg/kg): decreased in both volume and signal
- tumor volume response by caliper measurements (MCF7-F xenografts; 5 mg/kg i.p. every 4 days, six doses): strong tumor shrinkage
- xenografts cleared to sub-detectable levels (MCF7-F xenografts; 5 mg/kg, 10 xenografts): 10
- tumors recurred after follow-up (MCF7-F xenografts; 5 mg/kg, 204-day follow-up period): 10/10
- tumors returned to a size seen prior to treatment (MCF7-F xenografts; 204-day follow-up): only one tumor
- re-appearance of a lesion after the end of dosing (representative animal) (MCF7-F xenografts; luciferase imaging): 70 days
- cytotoxicity by MTT assay (MCF7 breast cancer cells): considerable cytotoxicity
- cytotoxicity by MTT assay [3]: considerable cytotoxicity
